Data: patent US20120269821A1 (published 2012)

What was measured:
Du422.1 envelope [1] = biological target: Du422.1 envelope (HIV-1); assay: cell-based or functional assay
QH0692.42 envelope [2] = biological target: QH0692.42 envelope (HIV-1); assay: cell-based or functional assay
SC422661.8 envelope = SC422661.8 envelope (HIV-1); assay: cell-based or functional assay
ZM197M.PB7 envelope [3] = biological target: ZM197M.PB7 envelope (HIV-1); assay: cell-based or functional assay
CAP206.1.B5 envelope [4] = biological target: CAP206.1.B5 envelope (HIV-1); assay: cell-based or functional assay
Du156.12 envelope [5] = biological target: Du156.12 envelope (HIV-1); assay: cell-based or functional assay
hepatitis E2 protein = hepatitis E2 protein (Hepatitis C); assay: antigen panel (luminex assay per paragraph 163); unit not given
MOJO gp140 = biological target: T1, MOJO gp140 (HIV-1); assay: as above
T1 construct: domain: gp140

HIV-1 gp41 = HIV-1 gp41 (HIV-1); assay: as above
Du422.1 envelope [6] = biological target: Du422.1 envelope (HIV-1); assay: cell-based or functional assay; parameters: unit not given beside the values
QH0692.42 envelope [7] = biological target: QH0692.42 envelope (HIV-1); assay: cell-based or functional assay; parameters: unit not given beside the values
ZM197M.PB7 envelope [8] = biological target: ZM197M.PB7 envelope (HIV-1); assay: cell-based or functional assay; parameters: unit not given beside the values
CAP206.1.B5 envelope [9] = biological target: CAP206.1.B5 envelope (HIV-1); assay: cell-based or functional assay; parameters: unit not given beside the values
TRO.11 envelope = TRO.11 envelope (HIV-1); assay: cell-based or functional assay; parameters: unit not given beside the values
Du156.12 envelope [10] = biological target: Du156.12 envelope (HIV-1); assay: cell-based or functional assay; parameters: unit not given beside the values

B1: CAP206-CH12 (antibody, V domains shown)
VH: QVQLVQSGAEVKKPGSSVKLSCKASGGTFGSYSVTWVRQAPGQTFEWVGRIVPWVGVPNYAPKFQGRVTITADKSSTVYMELTSLRFEDTAVYYCATAYEASGLSYYYYMDDWGKGTTVTVSS
VL: EIVLTQSPGTLSLSPGERATLSCRASQSVTSSYLAWFRHKPGQAPRLLIYGASYRGTGIPDRISGSGSGTDFTLTISRLEPEDFAVYYCQHYGGSPGMYTFGQGTRLEIK
notes: also called mAb 2311; 2311
IC50 in TZM-bl/FcγRI cells (Du422.1 envelope [1]): 2.7 mg/mL | IC50 in TZM-bl/FcγRI cells (QH0692.42 envelope [2]): > 32 mg/mL | IC50 in TZM-bl/FcγRI cells (SC422661.8 envelope): 0.4 mg/mL | IC50 in TZM-bl/FcγRI cells (ZM197M.PB7 envelope [3]): 0.3 mg/mL | IC50 in TZM-bl/FcγRI cells (CAP206.1.B5 envelope [4]): 0.7 mg/mL | IC50 in TZM-bl/FcγRI cells (Du156.12 envelope [5]): 0.6 mg/mL | reactivity (hepatitis E2 protein): 855 | reactivity (MOJO gp140): 2910 | reactivity (HIV-1 gp41): 1980 | IC50 in TZM-bl cells (Du422.1 envelope [6]): > 32 | IC50 in TZM-bl cells (QH0692.42 envelope [7]): > 32 | IC50 in TZM-bl cells (ZM197M.PB7 envelope [8]): 13 | IC50 in TZM-bl cells (CAP206.1.B5 envelope [9]): 5.9 | IC50 in TZM-bl cells (TRO.11 envelope): 17.5 | IC50 in TZM-bl cells (Du156.12 envelope [10]): 14.9
